B1: Twister Ribozyme (parent)
chain: AACACUGCCAAUGCCGGUCCCAAGCCCGGAUAAAAGUGGAGGGGGCGG

Variants of: B1
Test: self-cleavage, relative activity (ratio to wild type); higher = more cleavage; co-transcriptional

Variant	self-cleavage
A22C G39U	0.111
G13A G38U	0.463
A2C G24C	0.0423
A1U C21A	0.0801
A2C C5G	0.0784
G43A G44C	0.465
U18G G44A	0.0959
A30U A35U	0.812
A30U A35G	0.772
C8G G41A	0.179
A11C G41C	0.255
U12C U31C	0.938
C5U G42C	0.287
U6A C46U	1.04
U31C G48A	0.901
A4G C27G	0.0421
C8U G17C	0.0682
C8U G17U	0.0946
U37C G39C	0.0703
C9A A35G	0.548
G36U G47A	0.272
A2G G17U	0.0694
G43C G45C	0.267
G7A G39A	0.171

Variant	self-cleavage
U31G G36A	0.662
C8A G24U	0.841
C19A C20U	0.0818
C5G U18C	0.196
A34G G36U	0.105
A4U C9A	0.0614
U18C A35G	0.139
A2C G39C	0.105
G16C G42U	0.115
G16C G42A	0.139
U18C A34G	0.142
U37G A40U	0.128
C3U	0.48
G29C G44C	0.696
U12C G45C	0.584
C19A A33G	0.155
A22U G44U	0.812
A22U G44C	0.836
U31C G43U	0.537
C15U G43U	0.277
A4C G43C	0.0981
C19A C46G	0.177
U12A G43U	0.477
G43A C46U	0.315

Variant	self-cleavage
A1G G36U	0.204
C3G G36U	0.144
A11C G29A	0.531
A23C C27A	0.0984
A2C A10G	0.151
C14U G48C	1.26
A2C A11C	0.0419
G7A G36A	0.109
C5A A23C	0.0937
C3A A23G	0.0731
A1C G13A	0.12
A10U C46U	0.836
C26A G48U	0.355
A30U G43U	0.558
A2U A30G	0.772
G28C G48C	0.83
U6A U37G	0.328
G41U G43U	0.147
C26A A35U	0.732
G7U A35C	0.0996
G24C G41A	0.109
C27U G44U	0.774
G13A U37A	0.209
C14U U18C	0.594

Variant	self-cleavage
C21A G28A	0.0792
A32C G42C	0.326
A10G U37A	0.805
C3A A30U	0.184
C19G C26U	0.0735
A23C G44U	0.195
A4G A34U	0.499
C3G G16A	0.271
A10C A22C	0.993
C15A G41C	0.16
U18G A23G	0.0817
C21U C46A	0.107
C21U C46G	0.135
A2U G16U	0.309
C8A A30G	0.567
G24C G28U	0.0961
C9U G36U	0.164
C5G G38A	0.298
A30G G43A	0.22
A2U G17C	0.0754
A32G A40C	0.226
A30G A32U	0.962
G24C G42A	0.105
A22U G48A	0.666

Variant	self-cleavage
G24U U37C	0.0947
A32G G45C	0.559
G41A	0.665
A1U C9U	0.0321
C26G C27U	0.0811
C19A G28C	0.135
A4U G42U	0.0714
G13A G42A	0.186
C3G C9U	0.191
C25G C46G	0.223
C14G G44C	0.129
A1C C25G	0.13
U12C G47U	0.944
U12C G47C	0.497
A2G C20U	0.115
C14U G43A	0.369
C26G G41A	0.128
A23C A35C	0.227
A4C U31A	0.182
U31C G39U	0.19
C3G U18C	0.147
A23C G36U	0.0946
C21A A32C	0.169
G7C C15A	0.0454

Variant	self-cleavage
A2U G45A	0.514
C19U G29C	0.438
A2C G44U	0.0787
A30G G41A	0.666
G24C G44A	0.0864
A1U G38C	0.0576
C27G G45A	0.0977
C27G G45C	0.0921
G36C G41U	0.0915
G45C	0.645
C8A A35C	0.405
G38U G45A	0.827
A23C A30G	0.385
U31C A40U	0.149
G13C A40C	0.0965
U6C A40G	0.0788
U12A A22G	0.396
C21G C27G	0.138
C21G C27U	0.0651
A22C G45A	0.927
G7U U12C	0.0693
A10G C20G	0.183
A2U C20U	0.3
G13A G36C	0.118

Variant	self-cleavage
A11G C25U	0.737
A11G C25A	0.13
C9U G43C	0.151
C3U G41A	0.117
C21U G24C	0.0925
C8G G17U	0.0532
A10C G43C	0.201
A22C	1.02
A22U	0.879
C3G A33G	0.483
C8A A10G	0.734
A32U A34U	0.89
C8G C25A	0.0886
G13A A23G	0.0799
C9G A11C	0.764
U12A G39A	0.677
G17C C19A	0.0513
U12C G48C	1.18
A1U A34G	0.0704
C5A C21A	0.0272
C14G G24C	0.0845
A1G A40C	0.218
A34G G39C	0.109

— the RNAGym collection of RNA variant scans (doi:10.7554/elife.80360)
